Data on 2 molecules can be found in publication PMC5397183.

Series [1] deals with Bacillus halodurans FadR (native) (Bacillus halodurans). As to the kind of experiment: crystal structure.
For series [2] the target is unchanged. As to the kind of experiment: crystal structure. This is another data set of the same source.
The target of series [3] is T1, FadR WT (native, crystal) (Bacillus halodurans, UniProt Q9K8A4 1-195).
T1 sequence: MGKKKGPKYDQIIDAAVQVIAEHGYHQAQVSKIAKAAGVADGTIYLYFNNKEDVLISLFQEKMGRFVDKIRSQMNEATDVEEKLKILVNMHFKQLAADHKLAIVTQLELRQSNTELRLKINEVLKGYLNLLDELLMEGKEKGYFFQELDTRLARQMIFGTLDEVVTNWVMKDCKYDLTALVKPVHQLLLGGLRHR
Description: X-ray crystallography.

Like-named read-outs stand apart in the source and are kept apart here.

The stoichiometry N is the number of molecules, sites or subunits per partner or assembly. As for “Bacillus halodurans FadR (native) (natural protein)”, the stoichiometry N in series [1] and in series [2] was 2 each time.

B1: 21OH fadR promoter (dsDNA)
DNA 1: GATGAATGAATACTCATTCAT
DNA 2: CATGAATGAGTATTCATTCAT
Turning to B1, the binding result in series [3] is “binds”.
